Reference: paper PMC10455477, “The Roles of Coenzyme A Binding Pocket Residues in Short and Medium Chain Acyl-CoA Synthetases” (Life, 2023)
Numbering of substitutions follows the chain as printed. Names and notes keep the numbering of the source.

B1: MacsMa (Methanosarcina acetivorans C2A) (protein)
chain: MTSLLSQFVSKTDFESYEDFQENFKILVPENFNFAYDVVDVYARDSPEKLAMIWCDDYGNEKIFTFKDLKYYSDKAANFFVKHGIGKGDYVMLTLKSRYDFWYCMLGLHKLGAIAVPATHMLKTRDIVYRIEKAGLKMIVCIAEDDVPEQVDEAHAECGDIPLKKAKVGGDVLEGWIDFRKELEESSPIFERPTGEVSTKNEDICLVYFSSGTAGFPKMVEHDNTYPLGHILTAKYWQNVEDDGLHYTVADSGWGKCVWGKLYGQWIAGCAVFVYDYDRFEAKNMLEKASKYGVTTFCAPPTIYRFLIKEDLSHYNFSTLKYAVVAGEPLNPEVFNRFLEFTGIKLMEGFGQTETVVTIATFPWMEPKPGSIGKPTPGYKIELMDRDGRLCEVGEEGEIVINTMEGKPVGLFVHYGKDPERTEETWHDGYYHTGDMAWMDEDGYLWFVGRADDIIKTSGYKVGPFEVESALIQHPAVLECAITGVPDPVRGQVIKATIVLTKDYTPSDSLKNELQDHVKNVTAPYKYPRIIEFVPELPKTISGKIRRVEIRDKDQSQ
B2: MacsMa (Methanosarcina acetivorans C2A; G462A) (protein)
chain: B1 chain with G459A
notes: recombinant, E. coli Rosetta Blue (DE3) placI; His-Trap purified
B3: MacsMa (Methanosarcina acetivorans C2A; K464A) (protein)
chain: B1 chain with K461A
notes: as for B2
B4: MacsMa (Methanosarcina acetivorans C2A; K464R) (protein)
chain: B1 chain with K461R
notes: as for B2
B5: MacsMa (Methanosarcina acetivorans C2A; K522R) (protein)
chain: B1 chain with K519R
notes: as for B2

What was measured:
AcsMt = system: T1, AcsMt; assay: hydroxamate assay, A540; format: biochemical, Methanothermobacter thermautotrophicus; conditions: acetate and MgATP saturating; 65 °C; apparent Km
T1 construct: gene acs; recombinant, E. coli Rosetta Blue (DE3) placI; His-Trap purified
Text: hydroxamate assay, A540 on AcsMt

MacsMa = target: T2, MacsMa (Methanosarcina acetivorans, UniProt Q8TLW1); assay: inhibition of propionyl-adenylate synthetase activity; format: biochemical; conditions: read-out: % inhibition at 15 mM
T2 construct: gene MA_2912; recombinant, E. coli Rosetta Blue (DE3) placI; His-Trap purified

purified protein [1] = substrate: CC(C)(COP(=O)(O)OP(=O)(O)OC[C@H]1O[C@@H](n2cnc3c(N)ncnc32)[C@H](O)[C@@H]1OP(=O)(O)O)[C@@H](O)C(=O)NCCC(=O)NCCS; assay: purified protein; conditions: 2-methylbutyrate and ATP saturating, pH 7.5, 55 °C, apparent Km
purified protein [2] = substrate: CCC(=O)O; assay: purified protein; conditions: no CoA, ATP saturating, 55 °C, apparent Km
purified protein [3] = substrate: Nc1ncnc2c1ncn2[C@@H]1O[C@H](COP(=O)(O)OP(=O)(O)OP(=O)(O)O)[C@@H](O)[C@H]1O; assay: purified protein; conditions: 2-methylbutyrate and CoA saturating, pH 7.5, 55 °C, apparent Km
[4] = substrate: CC(C)(COP(=O)(O)OP(=O)(O)OC[C@H]1O[C@@H](n2cnc3c(N)ncnc32)[C@H](O)[C@@H]1OP(=O)(O)O)[C@@H](O)C(=O)NCCC(=O)NCCS; assay: 2-methylbutyryl-CoA synthetase activity; format: biochemical, Methanosarcina acetivorans; conditions: 2-methylbutyrate and ATP saturating, pH 7.5, 55 °C, apparent Km
Text: 2-methylbutyryl-CoA synthetase activity on MacsMa

Row | Molecule | Km [4] [µM] | kcat [4] [s⁻¹] | also measured
1 | CC(C)(COP(=O)(O)OP(=O)(O)OC[C@H]1O[C@@H](n2cnc3c(N)ncnc32)[C@H](O)[C@@H]1O)[C@@H](O)C(=O)NCCC(=O)NCCS [3′-dephospho CoA] |  |  | Km (AcsMt): 2160 ± 500 µM
2 | CC(C)(COP(=O)(O)OP(=O)(O)OC[C@H]1O[C@@H](n2cnc3c(N)ncnc32)[C@H](O)[C@@H]1OP(=O)(O)O)[C@@H](O)C(=O)NCCC(=O)NCCS [CoA] |  |  | inhibition at 15000 µM (MacsMa): ~40%
3 | B1 |  |  | Km (purified protein [1]): 4090 ± 450 µM; kcat (purified protein [1]): 2.15 ± 0.1 s⁻¹; Km (purified protein [2]): 29100 ± 300 µM; kcat (purified protein [2]): 10.67 ± 1.34 s⁻¹; Km (purified protein [3]): 4210 ± 110 µM
4 | B2 | 2090 ± 60 | 0.41 ± 0.01 | 
5 | B3 | 2190 ± 180 | 0.55 ± 0.03 | 
6 | B4 | 1380 ± 140 | 0.46 ± 0.1 | 
7 | B5 | 7180 ± 290 | 1.07 ± 0.02 | 
